Laboratory results: US20240398911A1

How the values were obtained:
[1] = target: myc-tagged full-length S of SARS-CoV-2 variant P.1 (Gamma) expressed on Expi293F cells (SARS-CoV-2 P.1 (Gamma))
[2] = target: myc-tagged full-length S of SARS-CoV-2 variant B.1.351 (Beta) expressed on Expi293F cells (SARS-CoV-2 B.1.351 (Beta))
[3] = target: myc-tagged full-length S of SARS-CoV-2 variant B.1.1.7 (Alpha) expressed on Expi293F cells (SARS-CoV-2 B.1.1.7 (Alpha))

Row | Substance | EC50 (read off the curve) [1] [nM] | EC50 (read off the curve) [2] [nM] | EC50 (read off the curve) [3] [nM]
1 | REGN10987 (imdevimab) (antibody) | 0.2 | 0.3 | –
2 | sACE22.v2.4 fused to human IgG1 Fc (Fc fusion) | 0.8 | – | 0.7
